Experimental data taken from PMC4688242 (Neurobiology of disease, 2015).

Biological target: the molecule itself
Assay: SDS-PAGE and Western blot of SDS-resistant oligomers

| Protein | binding result |
| --- | --- |
| EASNCFAIRHFENKFAVETLICFNLFLNSQEKHY (N-terminal pyroglutamate (pE) in place of Glu1) [ADan pE (34-amino acid ADan amyloid peptide with N-terminal pyroglutamate)] | binds |
| EASNCFAIRHFENKFAVETLICFNLFLNSQEKHY [ADan E (34-amino acid ADan amyloid peptide with N-terminal glutamate)] | binds |
